Reference: publication PMC10009750, “Development of Selective ADAMTS-5 Peptide Substrates to Monitor Proteinase Activity” (Journal of Medicinal Chemistry, 2023)
Values joined by “and” are separate entries in the source; they are usually repeats but may differ in a detail not shown here. Equal values may be shown once. Non-standard residues stand in square brackets, D forms with d. No end group written: not given here. Tyr(3-NO2) = N[C@@H](Cc1ccc(O)c([N+](=O)[O-])c1)C(=O)O; 2Abz = Nc1ccccc1C(=O)O

Legend:
TS5-5 (ADAMTS-5) = molecular target: T1, TS5-5 (ADAMTS-5) (Homo sapiens, UniProt Q9UNA0); assay: Determination of kinetic parameters (kcat and Km) for substrate cleavage by TS5-5, inner-filter corrected; type: biochemical
T1 construct: ADAMTS-5 (i.e. TS5-5, residues 264–555); FLAG; made in house; host or cells: HEK293 cells (previously transfected stocks)
T1 sequence (Q9UNA0 264-555): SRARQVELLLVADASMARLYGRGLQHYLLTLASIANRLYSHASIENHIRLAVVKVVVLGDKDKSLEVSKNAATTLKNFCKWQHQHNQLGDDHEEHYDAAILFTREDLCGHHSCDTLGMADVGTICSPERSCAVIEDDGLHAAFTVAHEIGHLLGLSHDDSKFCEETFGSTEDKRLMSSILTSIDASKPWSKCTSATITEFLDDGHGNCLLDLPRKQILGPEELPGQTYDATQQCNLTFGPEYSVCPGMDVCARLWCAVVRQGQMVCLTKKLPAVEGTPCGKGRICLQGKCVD
Protocol: A solution of Abz-TESE↓SRGAIY-Dpa-KK-NH2/3/26 (5 mM) or 19/23 (1 mM) in DMSO underwent a 2-fold serial dilution with freshly prepared TNC buffer containing 0.005% (v/v) Brij-35. This gave initial concentrations in the following range: 222.22 to 0.87 μM (Abz-TESE↓SRGAIY-Dpa-KK-NH2/3/23/26) and 177.78 to 1.39 μM (19). Eight substrate concentrations (180 μL) within these ranges (including outer numbers) were added to a 96-well black microplate in triplicate and incubated at 37 °C (20 min). TNC buffer with 0.005% (v/v) Brij-35 was added to substrate-only control wells in a single replicate (180 μL). TS5-5 proteinase was thawed from −80 or −20 °C, made up in TNC buffer with 0.005% (v/v) Brij-35 (300 nM) and added to substrate wells (20 μL). TNC buffer was added to substrate-only control wells (20 μL). Fluorescence intensity was measured at 37 °C for 1 h with readings every 20 s. The rate of substrate cleavage was determined at each substrate concentration and expressed as the mean ± SEM in μM s^–1. The subsequent data was fitted to the Michaelis–Menten eq 2: [drawing 2] 2 where v is the rate of the reaction, Vmax is the maximal rate of the reaction, Km is the Michaelis constant, and [S] is the substrate concentration. This equation enabled the Km value to be determined. The catalytic rate constant kcat was determined from eq 3: [drawing 3] 3 where [E] is the concentration of proteinase, and kcat and Vmax are as defined previously. These initial Km and kcat parameters were determined from n = 3–4 independent experiments with final values for these parameters reported after a correction for the inner-filter effect.
This was performed based on the protocol described in Liu et al.([40]) to correct for quenching of the released Abz fluorophore by uncleaved substrate. Two sets of initial substrate concentrations were prepared as described in the previous section. Both sets of substrate concentrations (180 μL) were added to a 96-well black microplate in triplicate. Two buffer-alone controls with TNC buffer containing 0.005% (v/v) Brij-35 (180 μL) were also added in triplicate. All solutions were incubated at 37 °C (20 min). Abz fluorophore (1 M) in DMSO was serially diluted to 1 mM in DMSO, before further dilution to 100 μM using TNC buffer containing 0.005% (v/v) Brij-35. TNC buffer containing 0.005% (v/v) Brij-35 (20 μL) was added to the first set of substrate concentrations as well as to the first buffer-alone control. Abz fluorophore (20 μL, 100 μM) was added to the second set of substrate concentrations as well as the second buffer-alone control. The end-point fluorescence intensity was measured at 37 °C using λex = 300 nm and λem = 430 nm. At each substrate concentration, […] to give the actual fluorescence of the Abz fluorophore (RFUAbz). These values were divided by RFUAbz at a substrate concentration of 0 μM to give the correction factor for each concentration. The rates for each substrate concentration described in the previous section were divided by their respective correction factors (Tables S6–S10) to deliver the inner-filter corrected kcat and Km values.

[1] = system: MMP-9ΔC (catalytic domain of MMP-9); assay: Selectivity studies: cleavage of FRET peptide substrates by MMP-9ΔC; type: biochemical; conditions: ratio of cleavage rates, substrate 20 μM
Protocol: All proteinase assays were performed at 37 °C in a SpectraMax M5 spectrophotometer (Molecular Devices, San Jose, USA) using a 96-well black microplate (Greiner bio-one, Stonehouse, UK) unless otherwise stated. […] N-TIMP-3 was purified as described previously[30] and CT-1746 was a gift from Dr. Yoshifumi Itoh (Kennedy Institute of Rheumatology, University of Oxford). All analyses were carried out using Prism 9 software (GraphPad, La Jolla, CA, USA).
Selectivity studies are described for Abz-TESE↓SRGAIY-Dpa-KK-NH2, the library parent peptide 3, and hit peptides 18–26. A solution of Abz-TESE↓SRGAIY-Dpa-KK-NH2 (22.22 μM) in freshly prepared TNC buffer with 0.005% (v/v) Brij-35 (90 μL) was added to a 96-well clear bottom microplate (Greiner bio-one, Stonehouse, UK) in triplicate. A substrate-only background control was also added in triplicate (90 μL). The resultant solutions were incubated at 37 °C (30 min). An ADAMTS or MMP proteinase was added to substrate wells (10 μL) to give a final proteinase concentration of either 50–90 nM (TS4-4), 25–200 nM (TS5-5), 5–10 nM (MMP-2ΔC), 30 nM (MMP-9ΔC), 92 nM (MMP-1), or 3 μM (MMP-3). TNC buffer with 0.005% (v/v) Brij-35 was added to substrate-only control wells (10 μL). The relative fluorescence intensity was measured at 37 °C for 1 h with readings every 20 s. Activity was read from underneath the microplate, which was covered with a low evaporation lid. […] For each ADAMTS and MMP proteinase, the assay was performed 2–4 times. […] Final rates were expressed as a percentage of substrate cleavage by TS5-5 (mean ± SEM) or in μM s^–1 μM^–1 of proteinase.

[2] = TS5-5, TNC buffer with 0.005% (v/v) Brij-35, 37 °C, corrected for inner filter effect, mean ± SEM from 3–4 independent experiments in triplicate
[3] = supplementary CSV copy of Table 3, TS5-5, 37 °C
[4] = TS5-5, TNC buffer with 0.005% (v/v) Brij-35, 37 °C, corrected for inner filter effect, mean ± SEM from 3–4 independent experiments in triplicate, listed as current substrate

Substance	decrease in Km compared to the current substrate (TS5-5 (ADAMTS-5); TS5-5) [fold]	higher catalytic efficiency (kcat/Km) compared to the current substrate (TS5-5 (ADAMTS-5); TS5-5) [fold]	Km (TS5-5 (ADAMTS-5); [2]) [µM]	kcat (TS5-5 (ADAMTS-5); [2])	kcat/Km (TS5-5 (ADAMTS-5); [2])	kcat (TS5-5 (ADAMTS-5); [3]) [s⁻¹]	preference (selectivity) for TS5-5 over MMP-9ΔC [1] [fold]	kcat (TS5-5 (ADAMTS-5); [4]) [s⁻¹]	kcat/Km (TS5-5 (ADAMTS-5); [4]) [M⁻¹ s⁻¹]	lower catalytic rate constant (kcat) compared to the current substrate (TS5-5 (ADAMTS-5); TS5-5) [fold]
KY(NO2)SENESRGK(Abz)IYYKKG (K[Tyr(3-NO2)]SENESRGK(2Abz)IYYKKG) [Compound 26]	~2	~1.5	76.9 ± 6.4	3.32 s⁻¹ and 3.32 ± 0.31 s⁻¹	44400 M⁻¹ s⁻¹ and 44400 ± 6690 M⁻¹ s⁻¹	3.32 ± 0.31	~548	–	–	–
Abz-TESE↓SRGAIY-Dpa-KK-NH2 [current, ortho-aminobenzoyl(Abz)-TESE↓SRGAIY-N-3-[2,4-dinitrophenyl]-L-2,3-diaminopropionyl(Dpa)-KK-NH2, reference compound]	–	–	125 ± 5	3.61 ± 0.31 s⁻¹	29100 ± 3090 M⁻¹ s⁻¹	3.61 ± 0.31	~213	3.61	29100	–
KY(NO2)TESESRGK(Abz)IYYKKG (K[Tyr(3-NO2)]TESESRGK(Abz)IYYKKG) [Compound 3]	~4	~2	29.5 ± 1.7	1.87 s⁻¹ and 1.87 ± 0.15 s⁻¹	63200 M⁻¹ s⁻¹ and 63200 ± 1840 M⁻¹ s⁻¹	1.87 ± 0.15	~2561	–	–	~2
